# Test results: patent US20230203155A1 (ALMAC DISCOVERY, published 2023)
# T1: P3A1 his myc
# T1 construct: VNAR; also called P3A1 6xHis myc
# T1 VNAR: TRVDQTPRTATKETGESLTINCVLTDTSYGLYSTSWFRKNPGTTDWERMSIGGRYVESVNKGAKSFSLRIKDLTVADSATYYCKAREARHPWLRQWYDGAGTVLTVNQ
# B1: E7 (VNAR)
# VNAR: TRVDQTPRTATKETGESLTINCVVTGAKYGLAATYWYRKNPGSSNQERISISGRYVESVNKRTMSFSLRIKDLTVADSATYYCKAYPWAMWGQWYDGAGTVLTVN
# notes: also called E7 phage clone; E7 monoclonal phage
# B2: Peptide 2 (peptide)
# peptide: RSTIYGSRLRINLDTTDTGYFQ
# notes: linear ROR1 ECD peptide; insoluble in PBS
# B3: BA11 C-terminal thiol derivative (VNAR)
# VNAR: TRVDQSPSSLSASVGDRVTITCVLTDTSYPLYSTYWYRKNPGSSNKEQISISGRYSESVNKGTKSFTLTISSLQPEDSATYYCRAMSTNIWTGDGAGTKVEIK
# modifications: C-terminal thiol (intein cleavage with cysteamine)
# notes: also called BA11-SH
# B4: BA11-C term thiol-maleimide-peg-fluorescein (VNAR)
# VNAR: B3 VNAR
# modifications: C-terminal thiol conjugated to maleimide-peg-fluorescein
# notes: also called BA11-S-mal-Fl
# B5: P3A1 (VNAR)
# VNAR: TRVDQTPRTATKETGESLTINCVLTDTSYGLYSTSWFRKNPGTTDWERMSIGGRYVESVNKGAKSFSLRIKDLTVADSATYYCKAREARHPWLRQWYDGAGTVLTVN
# notes: also called P3A1 phage clone; P3A1 monoclonal phage
# B6: P3A1-P3A1-S-mal-vcMMAE (VNAR)
# chain: TRVDQTPRTATKETGESLTINCVLTDTSYGLYSTSWFRKNPGTTDWERMSIGGRYVESVNKGAKSFSLRIKDLTVADSATYYCKAREARHPWLRQWYDGAGTVLTVNGGGGSGGGGSGGGGSGGGGSGGGGSTRVDQTPRTATKETGESLTINCVLTDTSYGLYSTSWFRKNPGTTDWERMSIGGRYVESVNKGAKSFSLRIKDLTVADSATYYCKAREARHPWLRQWYDGAGTVLTVNQASGAHHHHHHGAEFEQKLISEEDL
# modifications: C-terminal thiol conjugated to MC vc PAB MMAE
# B7: P3A1-P3A1-Ox-vcMMAE (VNAR)
# chain: B6 chain
# modifications: C-terminal aminoxy oxime-linked to benzaldehyde PEG2 vc PAB MMAE
# B8: P3A1-P3A1-Ox-MMAE (VNAR)
# chain: B6 chain
# modifications: C-terminal aminoxy oxime-linked to benzaldehyde PEG4 MMAE
# Assays:
# [1] = target: T2, human ROR2-hFc fusion protein (extracellular domain) (human); assay: monoclonal phage ELISA on coated ROR2-Fc
# T2 construct: Whole entry 'human ROR2-Fc (CHO)'; also called hROR2
# T2 sequence (chain, as listed by the source limits assumed): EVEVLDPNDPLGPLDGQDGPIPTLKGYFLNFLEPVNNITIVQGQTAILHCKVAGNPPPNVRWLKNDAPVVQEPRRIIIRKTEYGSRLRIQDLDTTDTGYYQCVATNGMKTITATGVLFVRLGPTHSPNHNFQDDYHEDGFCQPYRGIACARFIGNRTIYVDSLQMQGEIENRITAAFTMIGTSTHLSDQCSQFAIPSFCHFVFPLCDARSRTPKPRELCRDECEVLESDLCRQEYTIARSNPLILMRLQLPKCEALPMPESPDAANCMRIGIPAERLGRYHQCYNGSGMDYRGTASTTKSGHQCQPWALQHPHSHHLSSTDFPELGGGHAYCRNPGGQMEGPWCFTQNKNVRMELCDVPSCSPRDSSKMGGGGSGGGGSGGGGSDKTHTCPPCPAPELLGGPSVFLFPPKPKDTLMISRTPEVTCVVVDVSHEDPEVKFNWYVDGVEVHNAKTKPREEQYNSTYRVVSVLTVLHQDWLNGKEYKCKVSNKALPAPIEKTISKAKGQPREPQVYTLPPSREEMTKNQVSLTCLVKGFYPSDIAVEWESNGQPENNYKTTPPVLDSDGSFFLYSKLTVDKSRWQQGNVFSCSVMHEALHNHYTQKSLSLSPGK
# D3 his myc = target: T3, D3 his myc; assay: competition ELISA: D3 pre-incubated with peptide, residual binding to coated huROR1-Fc
# T3 construct: VNAR; made in E. coli and in HEK293 (expression system under assay); also called D3 WT
# [2] = target: T4, B1 VNAR with C-terminal His6Myc tag; assay: competition ELISA: B1 pre-incubated with peptide, residual binding to coated huROR1-Fc
# T4 construct: VNAR, E. coli; also called B1 his myc; B1HisMyc monomer
# Description: (§1) In brief, ELISA method as follows. Wells coated with 100 ng antigen and incubated, covered, at room temperature for 2 hr. Plates washed 3×400 ul per well with PBST (PBS+0.05% Tween 20 (v/v)), then blocked with 4% skimmed milk powder (w/v) in PBST for 1 hour at 37° C. Plates washed as before plus additional wash in PBS alone. Binding proteins were diluted in 4% milk PBST and incubated overnight at 4° C. Plates washed 3× with PBST, 3×PBS and binding detected using appropriate secondary detection antibody in 4% milk PBST, room temperature 1 hour. […] Rabbit anti-Mouse IgG H&L, HRP (Abcam #ab97046) [0360] Mouse anti-polyHis, HRP (Sigma #A7058)
# (§2) Competition assays were conducted as described in the methods with all four peptides reconstituted in PBS.
# P3A1 his myc = target: T1, P3A1 his myc; assay: competition ELISA: P3A1 pre-incubated with peptide, residual binding to coated huROR1-Fc
# Description: as §1, §2
# D3-[G4S]5-D3 his myc = target: T5, D3-[G4S]5-D3 his myc; assay: competition ELISA: D3-D3 pre-incubated with peptide, residual binding to coated huROR1-Fc
# T5 construct: VNAR homodimer by genetic fusion; also called D3-D3; D3 dimer
# human serum albumin [3] = target: T6, human serum albumin (human, UniProt P02768 25-609); assay: SPR, albumin on chip, pH 5.5;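 note: albumins amine-coupled onto carboxyl SPR chips, with each analyte also run over a hen egg lysozyme surface as negative control, Kd derived from binding kinetics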
# T6 construct: also called HSA
# Description: (§3) Binding kinetics were determined using SPR. The serum albumins or negative control protein were immobilised to COOH₂ chips by amine coupling using optimised buffer conditions as follows: —Human serum albumin (HSA) and mouse serum albumin (MSA) were immobilised in sodium acetate pH5 buffer. Rat serum albumin (RSA) and cynomolgous serum albumin (CSA) in sodium acetate pH 4.5 buffer and the negative control hen egg lysozyme (HEL) protein was immobilised in sodium acetate pH 5.5 buffer.
# (§4) For each analyte test experiment, binding to the chosen serum albumin protein was assayed alongside the negative control protein (HEL).
# mouse serum albumin [4] = target: T7, mouse serum albumin (mouse, UniProt P07724 25-608); assay: SPR, albumin on chip, pH 5.5;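 note: albumins amine-coupled onto carboxyl SPR chips, with each analyte also run over a hen egg lysozyme surface as negative control, Kd derived from binding kinetics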
# T7 construct: also called MSA
# T7 sequence (P07724 25-608 limits assumed): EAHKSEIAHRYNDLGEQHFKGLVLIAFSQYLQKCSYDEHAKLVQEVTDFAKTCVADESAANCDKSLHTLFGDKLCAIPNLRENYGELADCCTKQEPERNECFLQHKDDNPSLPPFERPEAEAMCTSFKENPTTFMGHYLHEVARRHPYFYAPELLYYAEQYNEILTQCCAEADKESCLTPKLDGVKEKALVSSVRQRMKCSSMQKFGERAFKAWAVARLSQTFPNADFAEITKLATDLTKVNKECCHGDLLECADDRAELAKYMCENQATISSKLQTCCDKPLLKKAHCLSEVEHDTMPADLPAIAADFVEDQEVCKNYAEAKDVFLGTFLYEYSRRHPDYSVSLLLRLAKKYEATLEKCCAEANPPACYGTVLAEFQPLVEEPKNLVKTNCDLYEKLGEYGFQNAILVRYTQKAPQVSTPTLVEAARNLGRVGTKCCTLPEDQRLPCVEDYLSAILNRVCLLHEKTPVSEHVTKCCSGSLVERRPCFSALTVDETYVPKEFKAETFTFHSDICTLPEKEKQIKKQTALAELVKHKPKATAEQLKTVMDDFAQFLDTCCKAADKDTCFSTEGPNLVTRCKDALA
# Description: as §3, §4
# rat serum albumin [5] = target: T8, rat serum albumin (rat, UniProt P02770 25-608); assay: SPR, albumin on chip, pH 5.5;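 note: albumins amine-coupled onto carboxyl SPR chips, with each analyte also run over a hen egg lysozyme surface as negative control, Kd derived from binding kinetics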
# T8 construct: also called RSA
# T8 sequence (P02770 25-608 limits assumed): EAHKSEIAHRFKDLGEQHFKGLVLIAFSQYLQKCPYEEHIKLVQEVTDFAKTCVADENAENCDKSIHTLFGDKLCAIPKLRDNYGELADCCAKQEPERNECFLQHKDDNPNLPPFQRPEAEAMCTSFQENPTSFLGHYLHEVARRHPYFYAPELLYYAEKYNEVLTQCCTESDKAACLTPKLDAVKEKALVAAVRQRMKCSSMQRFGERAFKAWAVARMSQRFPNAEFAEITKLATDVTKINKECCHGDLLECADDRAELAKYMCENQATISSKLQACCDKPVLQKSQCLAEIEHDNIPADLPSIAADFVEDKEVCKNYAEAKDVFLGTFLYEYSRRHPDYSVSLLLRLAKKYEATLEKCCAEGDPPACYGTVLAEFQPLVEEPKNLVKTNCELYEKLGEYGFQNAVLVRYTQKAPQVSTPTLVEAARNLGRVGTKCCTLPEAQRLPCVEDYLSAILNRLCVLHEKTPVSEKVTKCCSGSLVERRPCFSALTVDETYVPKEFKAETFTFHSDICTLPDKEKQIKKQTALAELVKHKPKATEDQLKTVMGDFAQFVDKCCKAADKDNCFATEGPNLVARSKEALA
# Description: as §3, §4
# [6] = target: T9, cynomolgous serum albumin (cynomolgous, UniProt A2V9Z4 25-608); assay: SPR, albumin on chip, pH 5.5;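 note: albumins amine-coupled onto carboxyl SPR chips, with each analyte also run over a hen egg lysozyme surface as negative control, Kd derived from binding kinetics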
# T9 construct: also called CSA; Cyano
# T9 sequence (A2V9Z4 25-608 limits assumed): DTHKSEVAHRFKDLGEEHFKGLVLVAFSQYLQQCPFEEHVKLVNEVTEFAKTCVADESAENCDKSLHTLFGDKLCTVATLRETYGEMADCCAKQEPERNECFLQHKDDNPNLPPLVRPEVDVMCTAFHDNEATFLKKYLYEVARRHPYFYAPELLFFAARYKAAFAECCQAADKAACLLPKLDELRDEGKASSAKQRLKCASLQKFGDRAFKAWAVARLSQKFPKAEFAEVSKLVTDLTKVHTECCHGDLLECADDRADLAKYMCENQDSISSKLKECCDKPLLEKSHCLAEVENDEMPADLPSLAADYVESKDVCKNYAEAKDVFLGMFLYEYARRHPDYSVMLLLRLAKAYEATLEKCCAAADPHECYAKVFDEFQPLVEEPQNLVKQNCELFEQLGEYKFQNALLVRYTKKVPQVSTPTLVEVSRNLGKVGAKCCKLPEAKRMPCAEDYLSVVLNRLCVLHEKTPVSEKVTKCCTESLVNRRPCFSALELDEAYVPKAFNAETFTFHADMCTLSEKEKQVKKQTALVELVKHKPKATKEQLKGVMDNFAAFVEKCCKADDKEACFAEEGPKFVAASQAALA
# Description: as §3, §4
# human serum albumin [7] = target: T6, human serum albumin; assay: SPR, albumin on chip, pH 7.4;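 note: Human, mouse, rat and cynomolgus serum albumins amine-coupled to carboxyl sensor chips, with a hen egg lysozyme surface measured in parallel as negative control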
# Description: as §3, §4
# mouse serum albumin [8] = target: T7, mouse serum albumin; assay: SPR, albumin on chip, pH 7.4;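 note: Human, mouse, rat and cynomolgus serum albumins amine-coupled to carboxyl sensor chips, with a hen egg lysozyme surface measured in parallel as negative control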
# Description: as §3, §4
# rat serum albumin [9] = target: T8, rat serum albumin; assay: SPR, albumin on chip, pH 7.4;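 note: Human, mouse, rat and cynomolgus serum albumins amine-coupled to carboxyl sensor chips, with a hen egg lysozyme surface measured in parallel as negative control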
# Description: as §3, §4
# [10] = target: T9, cynomolgous serum albumin; assay: SPR, albumin on chip, pH 7.4;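 note: Human, mouse, rat and cynomolgus serum albumins amine-coupled to carboxyl sensor chips, with a hen egg lysozyme surface measured in parallel as negative control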
# Description: as §3, §4
# [11] = target: T10, human ROR1-hFc fusion protein (extracellular domain) (human); assay: SPR, ROR1-hFc on chip
# T10 construct: Whole entry 'human ROR1-Fc (CHO)'; also called hROR1; huROR1-Fc
# T10 sequence (chain, as listed by the source limits assumed): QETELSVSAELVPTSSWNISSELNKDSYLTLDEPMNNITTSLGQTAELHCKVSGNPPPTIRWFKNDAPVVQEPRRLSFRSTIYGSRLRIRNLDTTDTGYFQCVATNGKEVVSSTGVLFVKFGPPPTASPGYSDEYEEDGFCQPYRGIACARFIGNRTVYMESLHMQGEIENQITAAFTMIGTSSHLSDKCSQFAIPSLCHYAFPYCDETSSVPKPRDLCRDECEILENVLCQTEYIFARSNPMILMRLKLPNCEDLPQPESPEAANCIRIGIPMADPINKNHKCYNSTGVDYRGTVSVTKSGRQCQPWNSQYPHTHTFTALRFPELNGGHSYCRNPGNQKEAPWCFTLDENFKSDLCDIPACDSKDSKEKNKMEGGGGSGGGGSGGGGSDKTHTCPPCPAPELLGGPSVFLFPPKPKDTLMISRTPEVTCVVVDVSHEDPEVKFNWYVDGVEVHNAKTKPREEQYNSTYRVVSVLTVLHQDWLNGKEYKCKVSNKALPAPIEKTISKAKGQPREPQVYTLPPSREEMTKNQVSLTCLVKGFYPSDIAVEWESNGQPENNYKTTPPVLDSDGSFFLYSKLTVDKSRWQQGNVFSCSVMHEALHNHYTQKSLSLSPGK
# Description: (§5) Binding kinetics were determined using a Pioneer Surface Plasmon Resonance (SPR) instrument (SensiQ/Pall ForteBio). […] VNARs and VNAR-Fc molecules were tested at various concentrations and the Ka (M⁻¹s⁻¹), Kd (s⁻¹) and KD (nM) values were determined using QDat software (SensiQ/Pall ForteBio).
# (§6) The ability of the VNAR-MMAE conjugates and VNAR-fluorescein conjugates to bind to human ROR1 ECD was determined by SPR using the procedures described above.
# [12] = target: T2, human ROR2-hFc fusion protein …; assay: SPR, ROR2-hFc on chip
# Description: as §5, §6
binder,measurement,setting,value
B1,binding result,[1],no binding
QCVATNGKEVVSSTGVLFVKFGPPPTASPGYSDEYE (linear ROR1 ECD peptide) [Peptide 4],binding result,D3 his myc,no binding
same,binding result,[2],no binding (tested: 10 uM)
same,binding result,P3A1 his myc,no binding (tested: about 500 uM as the axis is labelled)
same,binding result,D3-[G4S]5-D3 his myc,no binding
YMESLHMQGEIENQI (linear ROR1 ECD peptide) [Peptide 1],binding result,D3 his myc,no binding
same,binding result,[2],no binding (tested: 10 uM)
same,binding result,P3A1 his myc,no binding (tested: about 500 uM as the axis is labelled)
same,binding result,D3-[G4S]5-D3 his myc,no binding
B2,binding result,D3 his myc,no binding
same,binding result,[2],no binding (tested: 10 uM)
same,binding result,P3A1 his myc,no binding (tested: about 500 uM as the axis is labelled)
same,binding result,D3-[G4S]5-D3 his myc,no binding
CQPWNSQYPHTHTFTALRFP (linear ROR1 ECD peptide) [Peptide 3],binding result,D3 his myc,no binding
same,binding result,[2],no binding (tested: 10 uM)
same,binding result,P3A1 his myc,no binding (tested: about 500 uM as the axis is labelled)
same,binding result,D3-[G4S]5-D3 his myc,no binding
B3,Kd,human serum albumin [3],2.23 nM
same,Kd,mouse serum albumin [4],11.1 nM
same,Kd,rat serum albumin [5],12.1 nM
same,Kd,[6],6.74 nM
same,Kd,human serum albumin [7],0.774 nM
same,Kd,mouse serum albumin [8],4.76 nM
same,Kd,rat serum albumin [9],7.67 nM
same,Kd,[10],3.41 nM
B4,Kd,human serum albumin [3],1.91 nM
same,Kd,mouse serum albumin [4],10.6 nM
same,Kd,rat serum albumin [5],7.92 nM
same,Kd,[6],7.01 nM
same,Kd,human serum albumin [7],1.42 nM
same,Kd,mouse serum albumin [8],5 nM
same,Kd,rat serum albumin [9],5.3 nM
same,Kd,[10],2.3 nM
B5,binding result,[1],no binding
B6,Kd,[11],0.59 nM
same,koff,[11],0.0026 s⁻¹
same,kon,[11],4.96e+06 M⁻¹ s⁻¹
same,binding result,[12],no binding
B7,Kd,[11],1.43 nM
same,koff,[11],0.00277 s⁻¹
same,kon,[11],2.07e+06 M⁻¹ s⁻¹
same,binding result,[12],no binding
B8,Kd,[11],0.78 nM
same,koff,[11],0.0032 s⁻¹
same,kon,[11],4.2e+06 M⁻¹ s⁻¹
same,binding result,[12],no binding
